Assay results reported in the supplement of paper PMC7125110.
± gives the standard error. This sample holds only a part of the variants without activity.

B1: glmS ribozyme (parent)
chain: AUAAAAGCGCCAGAACUACAGAAAUGUAGUUGACGAGGAGGAGGUUUAUCGAAUUUUCGGCGGAUGCCUCCAAA

Variants of: B1
Assay: self-cleavage kobs at 2500 uM GlcN6P; higher = faster cleavage; RNA array
Settings: with glucosamine-6-phosphate
Outline: (§1)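 E. coli RNA polymerase transcribed barcoded ribozyme variants in situ on sequenced MiSeq chips, which were tracked via a hybridised Cy3 probe at 37 °C. Tiles were imaged over ~14 h after glucosamine-6-phosphate (40 μM to 10 mM) in HEPES/KCl/Mg(OAc)2 buffer was flowed in. Normalised per-tile medians were fit to one- or two-exponential decays for kobs, and kcat and KM came from weighted Michaelis–Menten fits.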

| Variant | self-cleavage kobs at 2500 uM GlcN6P [s⁻¹] |
| --- | --- |
| AUAAAAGCGCCAGAUCUACAGAAAUGUAGUUGACGAGGAGGAGGUUUAUCGAAUUCUCGGCGGAUGCAUCGAAA | < 1e-05 |
| AUAAAGGCGCCAGAACUACAGAAAUGUAGCUGACGAGGAGGAGUUUUAUCGCAUUUUCGGCGUAUGCCUCCAAA | < 1e-05 |
| AUAAAAGCGCCAGAAGUACAGAAAUGUAGCUGCCGAGGAGGAGGUUUAUCGAAUUUUCGGCGGAUGCUUCCAAA | < 1e-05 |
| AUAAAAGCGCCAGAGCUACAGAAAUGUAGUUGGCGAGGAGGAGGUUUCUCGAAUUUUCGGAGGAUGCCUCCAAA | < 1e-05 |
| AUAAAAGCGCAAGAACUACAGAAAUGUAGUUGACGAGGAGGAUGUUUAUCGAAGUUUCGGCGGAUGCCUCCAAA | < 1e-05 |
| AUAAAAGCGCCAGAGCUACAGAAAUGUAGUUGACAAGGAGGAGGUCUAUCGACUUUUCGGCGGAUGCCUCCAAA | < 1e-05 |
| AUAAAAGCGCCAGAACUACAGAAAUUUAGUUAACGAGGAGGAGGUUUAUCGAAUUUUCGGCGAAUGCCUCUAAA | < 1e-05 |
| AUAAAACCGCCAGAACUACAGAAAUGUAGUUGACGAGGAGGAGGUUUAUCGAGUUUUCGGCGGAUGCCUACAAA | < 1e-05 |
| AUAAAAGCGACAGACCUACAGAAAUGUAGUUGACGAGGAGGAGGUAUAUCGAAUUUUCGGUGGACGCCUCCAAA | < 1e-05 |
| AUAAAAGGGCCAGAACUACAGAAAUGUAGUUGGCGAGGAGGAGGUUUAUCGGGUUUUCGGCGGAUGCAGCCAAA | 0.000457 ± 0.00011 |
| AUAAAAGCGCCAGAACUACAGAAAUGUAGUUGCCGAGGAUGAGGUUUAUCUAAAUUUCGGCGGAUGCCUCCAAA | < 1e-05 |
| AUAAAAGCGACAGAACUACAGAAAUGUAGUUGACGAGGAGGAGGUUGAUCGAAUUUUCUGCGGAUGCUUCCAAA | 5.63e-05 ± 1.7e-05 |
| AUAAAAGCGCCAGGACUACAGAAAUGUAGUUGACGAGGAGGAGCUUUAUCGAAUUUUCGGCGGAUGCCUCCAAA | 0.000239 ± 4.2e-05 |
| AUAAAAGCGCCAGAACUACAGAAAUGUAGUUGACGAGGAGGAGGUUUAUCGCGUUUGCGGCGGAUGCCUGCAAA | 5.76e-05 ± 2.3e-05 |
| AUAAAAGCGCCCUAACUACAGAAAUGUAGCUGACGAGGAGGAGGUUUAUCGAAUUUUCGACGGAUACCUCCAAA | < 1e-05 |
| AUAAAAGCGCCAGAAUUACAGAAAUGUAGUUGACGAGGAGGAGGUCUAUCGACUUUUCGGCGGAUGCCUCCAAA | 0.000978 ± 0.0002 |
| AUAAAAGCGCCCGAACUACAGAAAUGUAGUUGACGAGGAGGAGGUUUAGCGAAUUUUCGGCUGAUGCCUCCAAA | < 1e-05 |

| Variant | self-cleavage kobs at 2500 uM GlcN6P [s⁻¹] |
| --- | --- |
| AUAAAAGCGCCAGCACUACAGAAAUGUAGUUGACGAGGAGGAGGAUUAUCGAAUUUACGGCGGAUGCCUCCAAA | 3.29e-05 ± 1.2e-05 |
| AUAAAAGCGCAAGAACUACAGAAAUGUAGUUGACGAGGAGGAGGUUUAUCUAAUAUUCGGCAGAUGCCUCCAAA | < 1e-05 |
| AUAAAAGCGCCAGAACUACAGAAAUGUAGUUGACGCGGAGGAGGUUUAUCGAAUUUUCGGGGUAUGCAUCCAAA | 0.000112 ± 3.9e-05 |
| AUAAAAGCGCCAGGACUACAGAAAUGUAGUUGACGAGGAGGAGGUUUAUCCAAUUUUCGGCGGUUGGCUCUAAA | < 1e-05 |
| AUAAAAGCUCCUGAACUACAGAAAUGUAGUUGACGAGGAGGAGGUUUAUCGAAUUUUCGGCGGAUGCUUCCAAA | < 1e-05 |
| AUAAAAGCGCCAGGACUACAGAAAUGUAGUUGACGAGGAGGCGGUUUACCGAAUUUUCGGCGGAUGCCUCCAAA | < 1e-05 |
| AUAAAAGCGCCAGAACUACAGAAAUGUAGUUGACGAGGAGGAGUUAUAUCGAAUUUUCGGCGGAUGCCUCCAAA | 0.000112 ± 3.8e-05 |
| AUAAAAGUGCCAGAACUACAGAAAUGUAUUUGACGUGGAGGAGGUUUAUCGAAUUUUCGGCGGAUGCCUCCAAA | < 1e-05 |
| AUAAAAGCGCCAGAAUUACAGAAAUGUACUUGACGAGGAGGAGGUUUAUCGAAUUUUCGGCGGGUCCCUCCAAA | 0.000347 ± 0.00011 |
| AUAAAAGCGCCAGAACUACAGAAAUGUAGUUAACGAGGAGGAGGUUUAUCGAAUUUUCGGCGGAUGCCGGUAAA | 0.00186 ± 0.00064 |
| AUAAAAGCGCCAGAACUACAGAAAUGUAGUUGACGAGAAGGAGGUUUAUCCUAUUUUCGGCAGAUGCCUCCAAA | < 1e-05 |
| AUAAAAGCGCCAGACCUACAGAAAUGUAGUUGACGAGGUGGAGGUUUAAUGGCUUUUCGGCGGAUGCCUCCAAA | < 1e-05 |
| AUAAAAGCCCCAGACCUACAGAAAUGUAGUUGCCGAGGAGGAGGUAUAUCGAAUUUUCGGCGGAGGCCUCCAAA | < 1e-05 |
| AUAAAAGCGCCAGAACUACAGAAAUGUAGUUGACGAUGAGGAGUUUUAUCGAAUUUUCGGCGGAUGCCUGCAAA | < 1e-05 |
| AUAAAAGCGCCAGAACUACAGAAAUGUAGUUGACGUGCAGGAGGUUUAUCGAAUUUUCGGCGGAUGCCCCCAAA | < 1e-05 |
| AUAAAAGCGCCAGAACUACAGAAAUGUAGAUGACGAGGAGGAGGUUUAUCGAAUUAUCGUCGGAUGCCUCCAAA | < 1e-05 |
| AUAAAAGCGCCAGAACUACAGAAAUGUAGUUGGCGGGUAGGAGGUUUAUCGAAUUUUCGGUGGAUGCCUCAAAA | < 1e-05 |

Variants of: B1
Assay: self-cleavage kobs at 10000 uM GlcN6P; higher = faster cleavage; RNA array
Settings: with glucosamine-6-phosphate
Outline: as §1

| Variant | self-cleavage kobs at 10000 uM GlcN6P [s⁻¹] |
| --- | --- |
| AUAAAAGCGCCAGGACUACAGAAAUGUAGUUGACGAGGAGGAGCUUUAUCGAAUUUUCGGCGGAUGCCUCCAAA | 0.000423 ± 7.7e-05 |
| AUAAAAGCGCCAGAACUACAGAAAUGUAGUUGACGAGGAGGAGUUAUAUCGAAUUUUCGGCGGAUGCCUCCAAA | 0.000117 ± 2.9e-05 |
